Sequences and labels used below:
T1: Soluble CDCP1 extracellular domain (CDCP1-ECD) (SEQ ID NO:30) fused to Streptavidin Binding Protein (SBP) (human, UniProt Q9H5V8 30-663)
T1 construct: also called SBP-CDCP1-ECD
T1 sequence: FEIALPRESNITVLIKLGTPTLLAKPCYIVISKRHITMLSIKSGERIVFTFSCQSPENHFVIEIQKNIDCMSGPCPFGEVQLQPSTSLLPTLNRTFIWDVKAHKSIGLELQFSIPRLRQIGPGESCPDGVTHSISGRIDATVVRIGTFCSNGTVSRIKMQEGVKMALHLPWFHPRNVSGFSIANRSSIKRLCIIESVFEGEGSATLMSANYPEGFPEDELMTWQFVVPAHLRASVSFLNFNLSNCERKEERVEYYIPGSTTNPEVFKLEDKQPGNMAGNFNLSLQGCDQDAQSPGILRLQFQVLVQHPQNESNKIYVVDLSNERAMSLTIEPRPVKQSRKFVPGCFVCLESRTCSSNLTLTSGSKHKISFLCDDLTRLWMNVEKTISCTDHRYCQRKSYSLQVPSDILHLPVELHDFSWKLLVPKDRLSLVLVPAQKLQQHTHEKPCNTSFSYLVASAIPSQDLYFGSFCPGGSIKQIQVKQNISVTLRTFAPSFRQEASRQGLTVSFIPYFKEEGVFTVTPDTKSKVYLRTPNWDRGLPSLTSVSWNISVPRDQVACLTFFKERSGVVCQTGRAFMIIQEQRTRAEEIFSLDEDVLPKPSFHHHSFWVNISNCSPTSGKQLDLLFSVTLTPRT

B1: hHC4-H / hLC4-J (antibody, V domains shown)
VH: EVQLVESGGGLVQPGGSLRLSCAASGFTFNSYGMSWVRQAPGKGLEWVATISSGGSYKYYVDSVKGRFTISRDNAKNSLYLQMNSLRAEDTAVYYCARHPDYDGVWFAYWGQGTLVTVSS
VL: EIVMTQSPATLSLSPGERATMSCRASSSVFYLHWYQQKPGQAPRLWIYDTSKLASGIPARFSGSGSGTDFTLTISSLQPEDFAVYYCQQWNSNPPTFGGGTKVEIK
notes: also called Humanized CUB4 Antibody No. 36
B2: hHC4-K / hLC4-I (antibody, V domains shown)
VH: EVQLVESGGGLVKPGGSLRLSCAASGFTFNSYGMSWVRQAPGKGLEWVSSISSGGSYIYYADSVKGRFTISRDNAKNSLYLQMNSLRAEDTAVYYCARHPDYDGVWFAYWGQGTLVTVSS
VL: EIVMTQSPATLSLSPGERATLSCRASSSVFYLSWYQQKPGQAPRLWIYDTSKLASGIPARFSGSGSGTDFTLTISSLQPEDFAVYYCQQWNSNPPTFGGGTKVEIK
B3: hHC4-I / hLC4-L (antibody, V domains shown)
VH: EVQLLESGGGLVQPGGSLRLSCAASGFTFNSYAMSWVRQAPGKGLEWVSAISSGGSYTYYADSVKGRFTISRDNSKNTLYLQMNSLRAEDTAVYYCAKHPDYDGVWFAYWGQGTLVTVSS
VL: EIVLTQSPATLSLSPGERATMSCRASSSVFYLHWYQQKPGQAPRLWIYDTSKLASGIPARFSGSGSGTDFTLTISSLEPEDFAVYYCQQWNSNPPTFGGGTKVEIK
B4: hHC4-K2 / hLC4-I (antibody, V domains shown)
VH: EVQLVESGGGLVKPGGSLRLSCAASGFTFNSYGMSWVRQAPGKGLEWVSSISSGGSYTYYADSVKGRFTISRDNAKNSLYLQMNSLRAEDTAVYYCARHPDYDGVWFAYWGQGTLVTVSS
VL: EIVMTQSPATLSLSPGERATLSCRASSSVFYLSWYQQKPGQAPRLWIYDTSKLASGIPARFSGSGSGTDFTLTISSLQPEDFAVYYCQQWNSNPPTFGGGTKVEIK
B5: hHC4-I / hLC4-I (antibody, V domains shown)
VH: EVQLLESGGGLVQPGGSLRLSCAASGFTFNSYAMSWVRQAPGKGLEWVSAISSGGSYTYYADSVKGRFTISRDNSKNTLYLQMNSLRAEDTAVYYCAKHPDYDGVWFAYWGQGTLVTVSS
VL: EIVMTQSPATLSLSPGERATLSCRASSSVFYLSWYQQKPGQAPRLWIYDTSKLASGIPARFSGSGSGTDFTLTISSLQPEDFAVYYCQQWNSNPPTFGGGTKVEIK
B6: hHC4-K2 / hLC4-a (antibody, V domains shown)
VH: EVQLVESGGGLVKPGGSLRLSCAASGFTFNSYGMSWVRQAPGKGLEWVSSISSGGSYTYYADSVKGRFTISRDNAKNSLYLQMNSLRAEDTAVYYCARHPDYDGVWFAYWGQGTLVTVSS
VL: EIVLTQSPATLSLSPGERATLSCSVSSSVFYVHWYQQKPGQAPRLLIYDTSKLASGIPARFSGSGSGTDFTLTISSLEPEDFAVYYCQQWNSNPPTFGGGTKVEIK
B7: hHC4-K / hLC4-L (antibody, V domains shown)
VH: EVQLVESGGGLVKPGGSLRLSCAASGFTFNSYGMSWVRQAPGKGLEWVSSISSGGSYIYYADSVKGRFTISRDNAKNSLYLQMNSLRAEDTAVYYCARHPDYDGVWFAYWGQGTLVTVSS
VL: EIVLTQSPATLSLSPGERATMSCRASSSVFYLHWYQQKPGQAPRLWIYDTSKLASGIPARFSGSGSGTDFTLTISSLEPEDFAVYYCQQWNSNPPTFGGGTKVEIK
B8: hHC4-K2 / hLC4-b (antibody, V domains shown)
VH: EVQLVESGGGLVKPGGSLRLSCAASGFTFNSYGMSWVRQAPGKGLEWVSSISSGGSYTYYADSVKGRFTISRDNAKNSLYLQMNSLRAEDTAVYYCARHPDYDGVWFAYWGQGTLVTVSS
VL: EIVLTQSPATLSLSPGERATLSCSVSSSVFYVHWYQQKPGQAPRLLIYDTSKLASGIPARFSGSGSGTDYTLTISSLEPEDFAVYYCQQWNSNPPTFGGGTKVEIK
B9: hHC4-I / hLC4-L2 (antibody, V domains shown)
VH: EVQLLESGGGLVQPGGSLRLSCAASGFTFNSYAMSWVRQAPGKGLEWVSAISSGGSYTYYADSVKGRFTISRDNSKNTLYLQMNSLRAEDTAVYYCAKHPDYDGVWFAYWGQGTLVTVSS
VL: EIVLTQSPATLSLSPGERATMSCSVSSSVFYLHWYQQKPGQAPRLWIYDTSKLASGIPARFSGSGSGTDFTLTISSLEPEDFAVYYCQQWNSNPPTFGGGTKVEIK
B10: hHC4-K2 / hLC4-L (antibody, V domains shown)
VH: EVQLVESGGGLVKPGGSLRLSCAASGFTFNSYGMSWVRQAPGKGLEWVSSISSGGSYTYYADSVKGRFTISRDNAKNSLYLQMNSLRAEDTAVYYCARHPDYDGVWFAYWGQGTLVTVSS
VL: EIVLTQSPATLSLSPGERATMSCRASSSVFYLHWYQQKPGQAPRLWIYDTSKLASGIPARFSGSGSGTDFTLTISSLEPEDFAVYYCQQWNSNPPTFGGGTKVEIK
B11: hHC4-H / hLC4-L (antibody, V domains shown)
VH: EVQLVESGGGLVQPGGSLRLSCAASGFTFNSYGMSWVRQAPGKGLEWVATISSGGSYKYYVDSVKGRFTISRDNAKNSLYLQMNSLRAEDTAVYYCARHPDYDGVWFAYWGQGTLVTVSS
VL: EIVLTQSPATLSLSPGERATMSCRASSSVFYLHWYQQKPGQAPRLWIYDTSKLASGIPARFSGSGSGTDFTLTISSLEPEDFAVYYCQQWNSNPPTFGGGTKVEIK
notes: also called Humanized CUB4 Antibody No. 58
B12: hHC4-K / hLC4-J (antibody, V domains shown)
VH: EVQLVESGGGLVKPGGSLRLSCAASGFTFNSYGMSWVRQAPGKGLEWVSSISSGGSYIYYADSVKGRFTISRDNAKNSLYLQMNSLRAEDTAVYYCARHPDYDGVWFAYWGQGTLVTVSS
VL: EIVMTQSPATLSLSPGERATMSCRASSSVFYLHWYQQKPGQAPRLWIYDTSKLASGIPARFSGSGSGTDFTLTISSLQPEDFAVYYCQQWNSNPPTFGGGTKVEIK
B13: hHC4-K2 / hLC4-K (antibody, V domains shown)
VH: EVQLVESGGGLVKPGGSLRLSCAASGFTFNSYGMSWVRQAPGKGLEWVSSISSGGSYTYYADSVKGRFTISRDNAKNSLYLQMNSLRAEDTAVYYCARHPDYDGVWFAYWGQGTLVTVSS
VL: EIVLTQSPATLSLSPGERATLSCRASSSVFYLHWYQQKPGQAPRLWIYDTSKLASGIPARFSGSGSGTDFTLTISSLEPEDFAVYYCQQWNSNPPTFGGGTKVEIK
B14: hHC4-I / hLC4-J (antibody, V domains shown)
VH: EVQLLESGGGLVQPGGSLRLSCAASGFTFNSYAMSWVRQAPGKGLEWVSAISSGGSYTYYADSVKGRFTISRDNSKNTLYLQMNSLRAEDTAVYYCAKHPDYDGVWFAYWGQGTLVTVSS
VL: EIVMTQSPATLSLSPGERATMSCRASSSVFYLHWYQQKPGQAPRLWIYDTSKLASGIPARFSGSGSGTDFTLTISSLQPEDFAVYYCQQWNSNPPTFGGGTKVEIK
B15: hHC4-K2 / hLC4-L2 (antibody, V domains shown)
VH: EVQLVESGGGLVKPGGSLRLSCAASGFTFNSYGMSWVRQAPGKGLEWVSSISSGGSYTYYADSVKGRFTISRDNAKNSLYLQMNSLRAEDTAVYYCARHPDYDGVWFAYWGQGTLVTVSS
VL: EIVLTQSPATLSLSPGERATMSCSVSSSVFYLHWYQQKPGQAPRLWIYDTSKLASGIPARFSGSGSGTDFTLTISSLEPEDFAVYYCQQWNSNPPTFGGGTKVEIK
B16: hHC4-K2 / hLC4-M (antibody, V domains shown)
VH: EVQLVESGGGLVKPGGSLRLSCAASGFTFNSYGMSWVRQAPGKGLEWVSSISSGGSYTYYADSVKGRFTISRDNAKNSLYLQMNSLRAEDTAVYYCARHPDYDGVWFAYWGQGTLVTVSS
VL: EIVLTQSPATLSLSPGERATMSCGASSSVFYLHWYQQKPGLAPRLWIYDTSKLASGIPDRFSGSGSGTDFTLTISRLEPEDFAVYYCQQWNSNPPTFGGGTKVEIK

We go through 16 molecules from patent publication US20110052582A1 (Hoffmann-La Roche, published 2011).

This assay addresses T1, Soluble CDCP1 extracellular domain …. Put plainly: ELISA on captured SBP-CDCP1-ECD, ratio relative to chimeric CUB4 (chHC4). As to the method:
Soluble CDCP1 extracellular domain (CDCP1-ECD) (SEQ ID NO:30) fused to Streptavidin Binding Protein (SBP) was captured on a sreptavidine plate. To define optimal binding of the antibody to SBP-CDCP1-ECD, 384-well polystyrene plates (NUNC, streptavidin-coated) delivered by MicroCoat, Bernried, Germany (ID-No. 1734776-001) have been coated with pure and stepwise diluted HEK293 supernatant (in BSA/IMDM buffer: 100 mg/ml BSA Fraction V, Roche 10735078001, dissolved in Iscove's Modified Dulbeccos Medium). Using a calibration curve of mouse CUB4 antibodies the optimal dilution factor of the HEK293 supernatant in relation to the streptavidin binding capacity of the microtiter plate was identified. For the standard coating, SBP-CDCP1-ECD containing HEK293 supernatant was diluted (between 1:15 and 1:40) and incubated overnight at 2-8° C. (25 μl per well). Intensive washing of the microtiter plate is necessary to remove remaining unbound SBP-CDCP1-ECD.
Humanized CUB4 antibodies and/or reference antibody (chimeric (chHC4) CUB4 antibody comprising human constant region and mouse VH and VL of SEQ ID NO:1 and 2) were tested either undiluted or using a 12-step-dilution. 12.5 μl per well of each sample was incubated for 90 min at room temperature. After intensive washing using PBS-T (0.1% Tween 20 in PBS) 25 μl of either goat anti-human IgG antibodies coupled with HRP (Jackson ImmunoResearch, Code No: 109-036-098, dilution 1:10000) for human antibodies were added and incubated for 1 hour. After intensive washing the binding of the antibodies was detected with ABTS tablets (Roche Diagnostics GmbH, Cat. No.: 1112422). Absorbance at 405 nm/492 nm was measured using a standard photometer.
With B1, the relative binding ratio was 0.52.
Take B2: the binding result was “no binding”.
As for B3, the relative binding ratio stood at 0.11.
For the molecule B4, the binding result is given as “no binding”.
Turning to B5, the binding result is given as “no binding”.
Take B6: the relative binding ratio turned out to be 0.1.
The same measure, in the same setting: the same measure for B7: 0.02; for B8: 0.12; for B9: 0.21.
Consider B10, for which the relative binding ratio amounted to 0.21.
The same measure, in the same setting: the same measure for B11: 0.44.
Same read-out and setting: the same measure for B12: 0.01; for B13: 0.3.
The same measure, in the same setting: the same measure for B14: 0.11; for B15: 0.2; for B16: 0.28.
